Consider one protein from article PMC3839853 (FEBS Open Bio, 2013).

The data set deals with the molecule itself. Description: crystal structure.

B1: Recombinant wild-type Phanerochaete chrysosporium pyranose 2-oxidase (PcP2O_(RECWT)), full-length residues 1-621 with N-terminal T7-epitope tag and C-terminal … (enzyme, UniProt Q6QWR1 10-621, looked up)
chain: ADEPYDVFIAGSGPIGATFAKLCVDANLRVCMVEIGAADSFTSKPMKGDPNAPRSVQFGPGQVPIPGYHKKNEIEYQKDIDRFVNVIKGALSTCSIPTSNNHIATLDPSVVSNSLDKPFISLGKNPAQNPFVNLGAEAVTRGVGGMSTHWTCATPEFFAPADFNAPHRERPKLSTDAAEDARIWKDLYAQAKEIIGTSTTEFDHSIRHNLVLRKYNDIFQKENVIREFSPLPLACHRLTDPDYVEWHATDRILEELFTDPVKRGRFTLLTNHRCTKLVFKHYRPGEENEVDYALVEDLLPHMQNPGNPASVKKIYARSYVVACGAVATAQVLANSHIPPDDVVIPFPGGEKGSGGGERDATIPTPLMPMLGKYITEQPMTFCQVVLDSSLMEVVRNPPWPGLDWWKEKVARHVEAFPNDPIPIPFRDPEPQVTIKFTEEHPWHVQIHRDAFSYGAVAENMDTRVIVDYRFFGYTEPQEANELVFQQHYRDAYDMPQPTFKFTMSQDDRARARRMMDDMCNIALKIGGYLPGSEPQFMTPGLALHLAGTTRCGLDTQKTVGNTHCKVHNFNNLYVGGNGVIETGFAANPTLTSICYAIRASNDIIAKFGRHRG
As to B1, the “stoichiometry N” value worked out at 4.

As a reminder, the stoichiometry N is a count of units in the complex or per binding partner.
